The source of these data is patent publication WO2022210830A1 (dated 2022).

In experiment [1] the target is T1, SARS-CoV Receptor binding domain (RBD) protein (SARS-CoV, UniProt P59594 306-527). Nature of the experiment: ELISA, immobilised domain protein, 200 ng/ml antibody. Background: ELISA stands for enzyme-linked immunosorbent assay.
Experiment [2] deals with T2, SARS-CoV-2 N-terminal domain (NTD) protein (SARS-CoV-2, UniProt P0DTC2 14-305). The experiment can be described thus: ELISA, immobilised NTD.
Experiment [3] addresses T3, SARS-CoV-2 spike protein (SARS-CoV-2, UniProt P0DTC2 14-1273).
Experiment [4] addresses T3, SARS-CoV-2 spike protein. Nature of the experiment: competition ELISA: antibody + biotin-ACE2 on immobilised spike.
In experiment [5] the target is SARS-CoV-2 spike protein, Wuhan type (WT), on pseudotype virus SARS-CoV-2 St19pv (SARS-CoV-2, UniProt P0DTC2 14-1273). Nature of the experiment: cell-based or functional assay.
For experiment [6], the target named is T2, SARS-CoV-2 N-terminal domain (NTD) …. The experiment can be described thus: ELISA, immobilised domain protein, 200 ng/ml antibody.
Experiment [7] has as its target T1, SARS-CoV Receptor binding domain (RBD) …. The experiment can be described thus: ELISA, immobilised SARS-CoV RBD.

Where two headings read alike, the source gives them in different places.

B1: 1028-05K (antibody, V domains shown)
VH: QVTLKESGPVLVKPTETLTLTCTVSGFSLSNARMGVSWIRQPPGKALEWLAHIFSNDEKSYSTSLKRRLTISKDTPKSQVVLTMTNMDPVDTATYYCARTLGFWSGEYYYYYMDVWGKGTTVTVSS
VL: EIVMTQSPATLSVSPGERATLSCRASQSVSSSYLAWYQQKPGQAPRLLIYGASTRATGIPARFSGSGSGTEFTLTISSLQSEDFAVYYCQHYNNWPPLFTFGPGTKVDIKR
B1: the binding result in experiment [1] was “binds”; in experiment [2], “no binding (tested: 200 ng/ml)”. Besides, in experiment [3], the IC50 is ≥ 10 µg/mL.

B2: 1028-121K (antibody, V domains shown)
VH: QVTLKESGPVLVKPTETLTLTCTVSGFSLSDARMGVSWIRQPPGKALEWLAHIFSNDEKSYNTSLKSRLTISKDTSKSQVVLTMTNMDPVDTATYYCARALGFWSGYYYYYYMDVWGKGTTVTVSS
VL: not shown
In the case of B2, the binding result is “binds” in experiment [1] and “no binding (tested: 200 ng/ml)” in experiment [2]. For the same molecule, in experiment [3], the IC50 was ~7.5 µg/mL.

B3: 0210-28K (antibody, V domains shown)
VH: QMQLVQSGPEVKKPGTSVKVSCKASGFTFSISAVQWVRQARGQRLEWIGWIVVGSGNTNYAQKFQERVTITRDMSTSTAYMELSSLRFEDTAVYYCAAPYCGGDCSDGFDIWGQGTMVTVSS
VL: not shown
On to B3, for which the IC50 in experiment [4] was ~0.15 µg/mL. In addition, in experiment [5], the “IC50, inhibition of pseudotype virus infection, 1st experiment” value came to 0.0084 µg/mL and the “IC50, inhibition of pseudotype virus infection, 2nd experiment” value turned out to be 0.0303 µg/mL.

B4: 1028-29K (antibody, V domains shown)
VH: QVQLVQSGAEVKKPGASVKVSCKASGYTFTSYYMHWVRQAPGQGLEWMGIINPSGGSTSYAQKFQGRVTMTRDTSTSTVYMELSSLRSEDTAVYYCARDGTPDIVVVPAAPLDYWGQGTLVTVSS
VL: EIVLTQSPATLSLSPGERATLSCRASQSVSSYLAWYQQKPGQAPRLLIYDVSNRATGIPARFSGSGSGTDFTLTISSLEPEDFAVYYCQQRSNWPPVLTFGGGTKVEIKR
As to B4, the binding result was “binds” in experiment [6] and “no binding (tested: 200 ng/ml)” in experiment [7].

B5: 1028-55K (antibody, V domains shown)
VH: EVQLVESGGGLVQPGGSLRLSCAASGFIVSSNYMSWVRQAPGKGLEWVSLIYSGGSTYYVDSVKGRFTISRDNTKNTLYLQMNSLRAEDTAVYYCARDLDVRGALDIWGQGTMVIVSS
VL: not shown
For B5, the binding result in experiment [2] and in experiment [7] was “no binding (tested: 200 ng/ml)” in each case. Also, in experiment [3], the IC50 is ~0.3 µg/mL.

B6: 1028-84K (antibody, V domains shown)
VH: QVQLVESGGGVVQPGRSLRLSCAASGFTFSNYAMHWVFQAPGMGLEWVAVISYDGINKYYADSVKGRFTISRDNSKNTLYLQMNSLRAEDTAVYYCASHRDDYVDSADAFDIWGQGTMVTVSS
VL: not shown
With B6, the binding result in experiment [2] and in experiment [7] was “no binding (tested: 200 ng/ml)” in each case.

B7: 1028-61L (antibody, V domains shown)
VH: EVQLVESGGGLVQPGGSLRLSCAASGIDVSSNYMSWVRQAPGKGLEWVSVIYSGGSTYYADAVRGRFTISRHNSKNTLYLQMNSLRAEDAAVYYCARDAQRYGMDVWGQGTTVTVSS
VL: SYVLTQPPSVSVAPGKTARITCGGNNIGSNTVHWYQQKPGQAPVLVIYYDSDRPSGIPERFSGSNSGNTATLTISRVEAGDEADYYCQLWDSSSDHVVFGGGTKLTVLG
Regarding B7, the binding result in experiment [2] and in experiment [7] was “no binding (tested: 200 ng/ml)” in each case. Also, in experiment [3], the IC50 is ~0.25 µg/mL.

B8: 1028-50K (antibody, V domains shown)
VH: EVQLVESGGGLVKPGGSLRLSCAASGFTFSSYIMNWVRQAPGKGLEWVSSISSSSYIYYADSVKGRFTISRDNAKNSLYLQMNSLRAEDTAVYYCARIVGATSYYYYGMDVWGQGTTVTVSS
VL: not shown
In the case of B8, the binding result in experiment [2] and in experiment [7] was “no binding (tested: 200 ng/ml)” in each case.

B9: 0210-30L (antibody, V domains shown)
VH: QVQLVQSGAEVKKPGSSVKVSCKASGGTFSSYAINWVRQAPGQGLEWMGRIIPILGRANYAQKFQGRVTITADKSTSTAYMELSSLRSEDTAVYYCARNPEEFSSSYVYYYYMDVWGKGTTVTVSS
VL: QSALTQPRSVSGSPGQSVTISCTGTSSDVGGYSYVSWYQQHPDKAPKLMIYDVSKRPSGVPDRFSGSKSGNTASLTISGLQAEDEADYYCCSYAGSYTSWVFGGGTKLTVLG
For B9, in experiment [4], the IC50 is ~0.2 µg/mL.

B10: 1028-30K (antibody, V domains shown)
VH: QVQLVQSGAEVKKPGSSVKVSCKASGGTFNTYAISWVRQAPGQGLEWMGGIIPIFGTANYAQKFQGRVTITADESTSTAYMELSSLRSEDTAVYYCARGEPGYCSGGNCYSSDYWGQGTLVTVSS
VL: not shown
In the case of B10, the binding result in experiment [2] and in experiment [7] was “no binding (tested: 200 ng/ml)” each time.

B11: 1028-65K (antibody, V domains shown)
VH: QVQLVQSGAEVKKPGASVKVSCKASGYTFSSYYMHWVRQAPGQGLEWMGIINPSGGSTSYAQKFQGRVTMTRDTSTSTVYMELSSLRSEDTAVYFCAREGRAAAETDNNWFDPWGQGTLVTVSS
VL: not shown
As to B11, the binding result in experiment [2] and in experiment [7] was “no binding (tested: 200 ng/ml)” each time.

B12: 1028-137K (antibody, V domains shown)
VH: QVHLVESGGGVVQPGRSLRLSCAASGFTFNSYAMHWVRQAPGKGLEWVAVISYDGNNKYYADSVKGRFTISRDNSKNTLYLQMNSLRAEDTAVYYCARDDDSGSYLYYFDYWGQGTLVTVSS
VL: not shown
Consider B12, for which the values for the binding result in experiment [6] and in experiment [7] were “binds” and “no binding (tested: 200 ng/ml)”, respectively.

B13: 0210-38L (antibody, V domains shown)
VH: EVQLVESGGGLVQPGGSLRLSCAASGFTFNSYWMSWVRQAPGKGLEWVADIKQDGSEKYYVDSVKGRFTISRDNAKNSLYLQMNSLRAEDTAVYYCARQLYYYGPIDYWGQGTLVTVSS
VL: NFMLTQPHSVSESPGKTVTISCTRSSGSIASNYVQWYQQRPGSSPTTVIYEDNQRPSGVPDRFSGSIDSSSNSASLTISGLKTEDEADYYCQSYDSNNRVFGGGTKLTVLG
As for B13, in experiment [4], the IC50 was ~1.5 µg/mL.

B14: 1028-106K (antibody, V domains shown)
VH: QLQLQESGPGLVKPSETLSLTCTVSGGSISSSYHYWGWIRQPPGKGLEWIGTIYYSGSTYYNPSLKSRVTISVDTSKNQFSLKLSSVTAADTAVYYCARRGYSYDSSGDGVDYWGQGTLVTVSS
VL: DIQMTQSPSSLSASVGDRVTITCRASQGIRNDLGWYQQKPGKAPKRLIYAASSLQSGVPSRFSGSGSGTEFTLTISSLQPEDFATYYCLQHNSYPLTFGGGTKVEIKR
On to B14, for which the binding result is listed as “binds” in experiment [6] and “no binding (tested: 200 ng/ml)” in experiment [7].

B15: 1028-68L (antibody, V domains shown)
VH: QVQLVESGGGVVQPGRSLRLSCAASGFTFSSYAMHWVRQAPGKGLEWVAVISYDGSNKYYADSVKGRFTISRDNSKNTLYLQMNSLRAEDTAVYYCARADGSGWNYWGQGTLVTVSS
VL: SYELTQPPSVSVSPGQTARITCSGDPLPKQYAYWYQQKPGQAPVLVIYKDSERPSGIPERFSGSSSGTTVTLTISGVQAEDEADYYCQSADSSGTYGWEFGGGTKLTVLG
In the case of B15, the binding result in experiment [2] and in experiment [7] was “no binding (tested: 200 ng/ml)” throughout.

B16: 1028-25K (antibody, V domains shown)
VH: QVQLVESGGGVVQPGRSLRLSCAASEFTFSGYAMHWVRQAPGKGLEWVAVISYDGINKYYADSVKGRFTISRDNSKNTLYLQMSSLRAEDTAVYYCARDPDYGDEGAFDYWGQGTLVTVSS
VL: not shown
As for B16, the binding result in experiment [2] and in experiment [7] was “no binding (tested: 200 ng/ml)” throughout.

B17: 1028-37K (antibody, V domains shown)
VH: QVQLQQSGPGLVKPSQTLSLTCDISGDSVSSNSVAWNWIRQSPSRGLEWLGRTYYRSKWYNDYAVSVKSRITINPDTSKNQFSLQLNSVTPEDTAVYYCASGGYQLLYDDAFDIWGQGTMVTVSS
VL: not shown
On to B17, for which the binding result is reported as “binds” in experiment [1] and “no binding (tested: 200 ng/ml)” in experiment [2]. For the same molecule, the IC50 in experiment [3] is ~0.7 µg/mL.

B18: 1028-62L (antibody, V domains shown)
VH: QVQLQESGPGLVKPSGTLSLTCAVSGGSISSSNWWSWVRQPPGKGLEWIGEIYHSGSTNYNPSLKSRVTISVDKSNNQFSLKLSSVTAADTAVYYCARGWNYDYWGQGTLVTVSS
VL: QSALTQPASVSGSPGQSITISCTGTSSDVGSYNLVSWYQQHPGKAPKLMIYEGSKRPSGVSNRFSGSKSGNTASLTISGLQAEDEADYYCCSYAGSSTWVFGGGTKLTVLG
Turning to B18, the binding result is recorded as “binds” in experiment [6] and “no binding (tested: 200 ng/ml)” in experiment [7].

B19: 1028-87L (antibody, V domains shown)
VH: not shown
VL: QAGLTQPPSVSKGLRQTATLTCTGNSNNVGNQGAAWLQQHQGHPPKLLSYRNNNRPSGISERLSASRSGNTASLTITGLQPEDEADYYCSAWDSSLSAQVFGGGTKLTVLG
On to B19, for which the binding result in experiment [2] and in experiment [7] was “no binding (tested: 200 ng/ml)” throughout.

B20: 1028-164L (antibody, V domains shown)
VH: QVTLRESGPALVKPTQTLTLTCTFSGFSLSTSGMCVSWIRQPPGKALEWLALIDWDDDKYYSTSLKTRLTISKDTSKNQVVLTMTNMDPVDTATYYCARIPVEMATIGDYYYYGMDVWGQGTTVTVSS
VL: not shown
As to B20, the binding result in experiment [6] is “binds”; in experiment [7], “no binding (tested: 200 ng/ml)”.

One may read the IC50 as the concentration at which inhibition is half-maximal.
